Data on 9 molecules can be found in patent US20100239571A1 (Seagen, published 2010).

Experiment [1] has as its target T1, CD30 surface antigen expressed on Karpas-299 (human, UniProt P28908 19-595).
T1 construct: whole, on cells; also called human CD30
T1 sequence (looked up): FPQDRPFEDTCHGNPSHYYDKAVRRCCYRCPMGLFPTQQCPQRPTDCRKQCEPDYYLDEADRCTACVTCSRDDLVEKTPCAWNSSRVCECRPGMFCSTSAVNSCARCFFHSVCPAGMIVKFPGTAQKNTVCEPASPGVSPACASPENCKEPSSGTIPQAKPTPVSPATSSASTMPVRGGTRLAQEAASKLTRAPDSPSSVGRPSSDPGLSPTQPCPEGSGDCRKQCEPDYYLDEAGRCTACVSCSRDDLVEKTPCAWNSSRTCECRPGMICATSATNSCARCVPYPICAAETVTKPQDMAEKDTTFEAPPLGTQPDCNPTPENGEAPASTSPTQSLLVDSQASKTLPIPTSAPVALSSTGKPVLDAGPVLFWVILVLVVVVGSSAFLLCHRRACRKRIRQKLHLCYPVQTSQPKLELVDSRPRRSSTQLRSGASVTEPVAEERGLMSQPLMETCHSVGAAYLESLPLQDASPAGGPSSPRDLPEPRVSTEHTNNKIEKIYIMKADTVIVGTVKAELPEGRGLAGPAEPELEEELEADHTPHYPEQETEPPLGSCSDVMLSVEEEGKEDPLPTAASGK
Nature of the experiment: competition binding on Karpas 299 cells against europium-labeled cAC10. How it is done: (§1) The variants were tested for binding to CD30 surface antigen expressed on Karpas-299, an anaplastic large cell lymphoma cell line, using a competition binding assay in which cAC10, expressed in CHO cells, was europium labeled (see, e.g., Law et al., Cancer Research 65:8331-38 (2005)). The results, shown below in the second column of Table 6, indicate that all of the variants were able to compete with cAC10 for binding to CD30. Thus, the variants retained antigen binding activity.

For experiment [2], the target named is T1, CD30 surface antigen expressed on …. In words: competition binding on Karpas 299 cells against europium-labeled cAC10 (control competitor). How it is done: as §1

B1: hAC10 HALA (antibody, human IgG1, kappa, V domains shown)
VH: QVQLVQSGAEVKKPGASVKVSCKASGYTFTDYYITWVRQAPGQGLEWMGWIYPGSGNTKYNEKFKGRVTMTVDTSISTAYMELSRLRSDDTAVYFCANYGNYWFAYWGQGTLVTVSS
VL: DIVMTQSPDSLAVSLGERATINCKASQSVDFDGDSYMNWYQQKPGQPPKLLIYAASNLESGVPDRFSGSGSGTDFTLTISSLQAEDVAVYYCQQSNEDPWTFGQGTKVEIKR
notes: The name HALA is read as heavy variant A plus light variant A; also called humanized AC10 variant HALA; hVH A + hVL A
B1: in experiment [1], the midpoint of the response, the EC50, lay at 6.61 nM.

B2: hAC10 HBLA (antibody, human IgG1, kappa, V domains shown)
VH: QVQLVQSGAEVKKPGASVKVSCKASGYTFTDYYITWVRQAPGQGLEWMGWIYPGSGNTKYNEKFKGRVTMTRDTSISTAYMELSRLRSDDTAVYFCANYGNYWFAYWGQGTLVTVSS
VL: DIVMTQSPDSLAVSLGERATINCKASQSVDFDGDSYMNWYQQKPGQPPKLLIYAASNLESGVPDRFSGSGSGTDFTLTISSLQAEDVAVYYCQQSNEDPWTFGQGTKVEIKR
notes: Human IgG1 / kappa; also called humanized AC10 variant HBLA; hVH B + hVL A
As for B2, the midpoint of the response in experiment [1], the EC50, lay at 3.31 nM.

B3: hAC10 HCLA (antibody, human IgG1, kappa, V domains shown)
VH: QVQLVQSGAEVKKPGASVKVSCKASGYTFTDYYITWVRQAPGQGLEWMGWIYPGSGNTKYNEKFKGRVTMTVDTSISTAYMELSRLRSDDTAVYYCANYGNYWFAYWGQGTLVTVSS
VL: DIVMTQSPDSLAVSLGERATINCKASQSVDFDGDSYMNWYQQKPGQPPKLLIYAASNLESGVPDRFSGSGSGTDFTLTISSLQAEDVAVYYCQQSNEDPWTFGQGTKVEIKR
notes: Human IgG1 / kappa; also called humanized AC10 variant HCLA; hVH C + hVL A
Consider B3, for which, in experiment [1], it took 3.61 nM to reach a half-maximal effect (EC50).

B4: hAC10 HALB (antibody, human IgG1, kappa, V domains shown)
VH: QVQLVQSGAEVKKPGASVKVSCKASGYTFTDYYITWVRQAPGQGLEWMGWIYPGSGNTKYNEKFKGRVTMTVDTSISTAYMELSRLRSDDTAVYFCANYGNYWFAYWGQGTLVTVSS
VL: DIVMTQSPDSLAVSLGERATINCKSSQSVDFDGDSYMNWYQQKPGQPPKLLIYAASNLESGVPDRFSGSGSGTDFTLTISSLQAEDVAVYYCQQSNEDPWTFGQGTKVEIKR
notes: Human IgG1 / kappa; also called humanized AC10 variant HALB; hVH A + hVL B
B4: the EC50 (commonly the concentration at which the effect is half-maximal) in experiment [1] amounted to 5.9 nM.

B5: hAC10 HDLA (antibody, human IgG1, kappa, V domains shown)
VH: QVQLVQSGAEVKKPGASVKVSCKASGYTFTDYYITWVRQAPGQGLEWMGWIYPGSGNTKYNEKFKGRVTMTRDTSISTAYMELSRLRSDDTAVYYCANYGNYWFAYWGQGTLVTVSS
VL: DIVMTQSPDSLAVSLGERATINCKASQSVDFDGDSYMNWYQQKPGQPPKLLIYAASNLESGVPDRFSGSGSGTDFTLTISSLQAEDVAVYYCQQSNEDPWTFGQGTKVEIKR
notes: Human IgG1 / kappa; also called humanized AC10 variant HDLA; antibody HDLA
Turning to B5, the EC50 in experiment [1] was 3.1 nM. This EC50 lies about 1.9-fold lower than the previous one.

B6: hAC10 HALD (antibody, human IgG1, kappa, V domains shown)
VH: QVQLVQSGAEVKKPGASVKVSCKASGYTFTDYYITWVRQAPGQGLEWMGWIYPGSGNTKYNEKFKGRVTMTVDTSISTAYMELSRLRSDDTAVYFCANYGNYWFAYWGQGTLVTVSS
VL: DIVMTQSPDSLAVSLGERATINCKSSQSVDFDGDSYLNWYQQKPGQPPKLLIYAASNLESGVPDRFSGSGSGTDFTLTISSLQAEDVAVYYCQQSNEDPWTFGQGTKVEIKR
notes: Human IgG1 / kappa; also called humanized AC10 variant HALD; hVH A + hVL D
B6: the EC50 in experiment [1] stood at 6 nM.

B7: hAC10 HDLD (antibody, human IgG1, kappa, V domains shown)
VH: QVQLVQSGAEVKKPGASVKVSCKASGYTFTDYYITWVRQAPGQGLEWMGWIYPGSGNTKYNEKFKGRVTMTRDTSISTAYMELSRLRSDDTAVYYCANYGNYWFAYWGQGTLVTVSS
VL: DIVMTQSPDSLAVSLGERATINCKSSQSVDFDGDSYLNWYQQKPGQPPKLLIYAASNLESGVPDRFSGSGSGTDFTLTISSLQAEDVAVYYCQQSNEDPWTFGQGTKVEIKR
notes: Human IgG1 / kappa; also called humanized AC10 variant HDLD; hVH D + hVL D
In turn, B7 displayed an EC50 in experiment [1] of 2.25 nM.

B8: hAC10 HALC (antibody, human IgG1, kappa, V domains shown)
VH: QVQLVQSGAEVKKPGASVKVSCKASGYTFTDYYITWVRQAPGQGLEWMGWIYPGSGNTKYNEKFKGRVTMTVDTSISTAYMELSRLRSDDTAVYFCANYGNYWFAYWGQGTLVTVSS
VL: DIVMTQSPDSLAVSLGERATINCKASQSVDFDGDSYLNWYQQKPGQPPKLLIYAASNLESGVPDRFSGSGSGTDFTLTISSLQAEDVAVYYCQQSNEDPWTFGQGTKVEIKR
notes: Human IgG1 / kappa; also called humanized AC10 variant HALC; hVH A + hVL C
In turn, B8 came in with an EC50 in experiment [1] of 3.53 nM.

B9: cAC10 (CHO) (antibody, V domains shown)
VH: QVQLVQSGAEVVKPGASVKVSCKASGYTFTDYYITWVRQAPGQGLEWMGWIYPGSGNTKYNEKFKGKATLTVDTSSSTAFMQLSSLTSEDTAVYFCANYGNYWFAYWGQGTQVTVSA
VL: DIVLTQSPASLAVSLGQRATISCKASQSVDFDGDSYMNWYQQKPGQPPKVLIYAASNLESGIPARFSGSGSGTDFTLNIHPVEEEDAATYYCQQSNEDPWTFGGGTKLEIK
notes: Human-murine chimeric AC10 expressed in CHO cells; also called chimeric AC10; chimeric monoclonal antibody AC10
Regarding B9, a half-maximal response in experiment [2] (EC50) required 2.9 nM. In other words, the single-digit nanomolar range.
